# Experimental data reported in patent US20260242478A1 (published 2026).
# Like-named read-outs stand apart in the source and are kept apart here. Where no end group is shown, it is not given here.
# How the values were obtained:
# Ab-15 [1] = assay: binding ELISA: biotinylated peptide on neutravidin plate, Ab-15 titrated
# Ab-15 [2] = assay: BLI (Octet): sensor loaded with 200 nM biotinylated peptide, 100 nM Ab-15
# Ab-15 [3] = assay: competition ELISA: peptide titrated against 1 nM Ab-15; competitor plate-bound CD28
# [4] = target: T1, Anti-CD28 Fab (SEQ ID NOs: 696, 697); assay: phage binding ELISA; biotinylated Fab on neutravidin plate, clonal phage supernatant, anti-M13 HRP; background signal 0.06
# T1 construct: Biotinylated and captured on neutravidin coated plates in the phage ELISA
# [5] = target: T1, Anti-CD28 Fab (SEQ ID NOs: 696, 697); assay: phage binding ELISA on captured Fab; competitor: CD28 antigen pre-incubated in the wells
# [6] = target: T2, Anti-CD28 Fab (SEQ ID NOs: 696, 697); assay: phage binding ELISA on captured anti-CD28 Fab; wells pre-incubated with CD28 antigen as competitor
# T2 construct: In the phage ELISA the Fab was biotinylated and captured on neutravidin coated plates
# [7] = target: T2, Anti-CD28 Fab (SEQ ID NOs: 696, 697); assay: phage binding ELISA; biotinylated anti-CD28 Fab captured on neutravidin plate, clonal phage supernatant, anti-M13 HRP detection
# PSMA Fab [8] = target: T3, PSMA Fab; assay: BLI (Octet); PSMA Fab on sensor-loaded biotinylated peptide, 1:1 model
# T3 construct: also called 006 PSMA Fab; anti-PSMA Fab
# PSMA Fab [9] = target: T3, PSMA Fab; assay: binding ELISA; PSMA Fab titrated on plate-captured biotinylated peptide
# PSMA Fab [10] = target: T3, PSMA Fab; assay: competition ELISA; peptide 0-100 µM with 0.3 nM PSMA Fab on plate-captured biotinylated PSMA
# PSMA Fab [11] = target: T3, PSMA Fab; assay: as above; remark: listed apart in the source
# PSMA Fab [12] = target: T3, PSMA Fab; assay: as above; remark: listed apart in the source
# PSMA Fab [13] = target: T3, PSMA Fab; assay: binding ELISA; PSMA Fab titrated on plate-captured biotinylated peptide; remark: listed apart in the source
# PSMA Fab [14] = target: T3, PSMA Fab; assay: BLI (Octet); PSMA Fab on sensor-loaded biotinylated peptide, 1:1 model; remark: listed apart in the source
# PSMA Fab [15] = target: T3, PSMA Fab; assay: competition ELISA; peptide 0-100 µM with 0.3 nM PSMA Fab on plate-captured biotinylated PSMA; remark: listed apart in the source
binder,measurement,setting,value
"IDWCPLHLWHECYH (cysteine pairing not given here; also: biotinylated, site not given here, CD28 peptide mask) [Peptide-72]",EC50,Ab-15 [1],0.0133 µM
same,Octet signal (200 nM peptide),Ab-15 [2],0.838
same,IC50,Ab-15 [3],1.52 µM
"YCDGHSQEYMEKCL (tested as crude clonal phage supernatant) [Phage-1014 (Peptide-87 library peptide, SEQ ID NO: 1330)]",Anti-CD28 Fab signal (phage binding ELISA),[4],1.5
same,Anti-CD28 Fab signal in the presence of CD28 (phage binding ELISA),[5],0.06
"YCDGHSQIYMSKCL [Phage-1329 (Peptide-87 library sequence, SEQ ID NO: 1645)]","Phage binding ELISA, Anti-CD28 Fab signal in the presence of CD28",[6],0.06
same,"Phage binding ELISA, Anti-CD28 Fab signal",[7],0.42
"YCTGWQVAYMQNCF [Phage-1331 (Peptide-87 library sequence, SEQ ID NO: 1647)]","Phage binding ELISA, Anti-CD28 Fab signal in the presence of CD28",[6],0.06
same,"Phage binding ELISA, Anti-CD28 Fab signal",[7],0.42
GEKWCIPDWMCSGF [Peptide-233],Off rate t1/2,PSMA Fab [8],3.9 min
same,EC50,PSMA Fab [9],0.0069 µM
same,IC50,PSMA Fab [10],0.36 µM
"YCDGHSEQYIAKCL (tested as crude clonal phage supernatant) [Phage-1022 (Peptide-87 library peptide, SEQ ID NO: 1338)]",Anti-CD28 Fab signal (phage binding ELISA),[4],1.49
same,Anti-CD28 Fab signal in the presence of CD28 (phage binding ELISA),[5],0.08
"YCDGHLPEYMEKCL [Phage-1327 (Peptide-87 library sequence, SEQ ID NO: 1643)]","Phage binding ELISA, Anti-CD28 Fab signal in the presence of CD28",[6],0.07
same,"Phage binding ELISA, Anti-CD28 Fab signal",[7],0.43
"YCEGHIMQYMAQCL (tested as crude clonal phage supernatant) [Phage-1020 (Peptide-87 library peptide, SEQ ID NO: 1336)]",Anti-CD28 Fab signal (phage binding ELISA),[4],1.49
same,Anti-CD28 Fab signal in the presence of CD28 (phage binding ELISA),[5],0.06
IDIRCTPIWMCVGF [Peptide-239],Off rate t1/2,PSMA Fab [8],2 min
same,EC50,PSMA Fab [9],0.0094 µM
same,IC50,PSMA Fab [10],0.62 µM
"YCDGHLPIYQAKCL (tested as crude clonal phage supernatant) [Phage-1021 (Peptide-87 library peptide, SEQ ID NO: 1337)]",Anti-CD28 Fab signal (phage binding ELISA),[4],1.49
same,Anti-CD28 Fab signal in the presence of CD28 (phage binding ELISA),[5],0.1
"YCAGHASEYLQKCL [Phage-1328 (Peptide-87 library sequence, SEQ ID NO: 1644)]","Phage binding ELISA, Anti-CD28 Fab signal in the presence of CD28",[6],0.06
same,"Phage binding ELISA, Anti-CD28 Fab signal",[7],0.43
LDKWCVPKWMCSGL [Peptide-232],Off rate t1/2,PSMA Fab [8],2.1 min
same,EC50,PSMA Fab [9],0.0072 µM
same,IC50,PSMA Fab [10],0.96 µM
DVKLCKPEWMCYGL [Peptide-236],Off rate t1/2,PSMA Fab [8],1.8 min
same,EC50,PSMA Fab [9],0.0198 µM
same,IC50,PSMA Fab [10],0.38 µM
"VPWCQIISGLECLT (cysteine pairing not given here; also: biotinylated, site not given here, CD28 peptide mask) [Peptide-73]",EC50,Ab-15 [1],0.0549 µM
same,Octet signal (200 nM peptide),Ab-15 [2],0.166
same,IC50,Ab-15 [3],> 100 µM
"YCAGHLDEYMEKCL [Phage-1332 (Peptide-87 library sequence, SEQ ID NO: 1648)]","Phage binding ELISA, Anti-CD28 Fab signal in the presence of CD28",[6],0.07
same,"Phage binding ELISA, Anti-CD28 Fab signal",[7],0.4
"YCDGHSELYMAKCL (tested as crude clonal phage supernatant) [Phage-1010 (Peptide-87 library peptide, SEQ ID NO: 1326)]",Anti-CD28 Fab signal (phage binding ELISA),[4],1.51
same,Anti-CD28 Fab signal in the presence of CD28 (phage binding ELISA),[5],0.06
"YCDGHTWMYKQKCL [Phage-1333 (Peptide-87 library sequence, SEQ ID NO: 1649)]","Phage binding ELISA, Anti-CD28 Fab signal in the presence of CD28",[6],0.08
same,"Phage binding ELISA, Anti-CD28 Fab signal",[7],0.4
"YCEGHMPQYMEKCL (tested as crude clonal phage supernatant) [Phage-1012 (Peptide-87 library peptide, SEQ ID NO: 1328)]",Anti-CD28 Fab signal (phage binding ELISA),[4],1.51
same,Anti-CD28 Fab signal in the presence of CD28 (phage binding ELISA),[5],0.06
VEKLCTPIWMCLGF [Peptide-235],Off rate t1/2,PSMA Fab [8],2.3 min
same,EC50,PSMA Fab [9],0.0105 µM
same,IC50,PSMA Fab [10],0.32 µM
"LDWCPRHLWALCFN (cysteine pairing not given here; also: biotinylated, site not given here, CD28 peptide mask) [Peptide-70]",EC50,Ab-15 [1],0.0082 µM
same,Octet signal (200 nM peptide),Ab-15 [2],0.697
same,IC50,Ab-15 [3],0.47 µM
"YCEGHSLMYMAKCL (tested as crude clonal phage supernatant) [Phage-1013 (Peptide-87 library peptide, SEQ ID NO: 1329)]",Anti-CD28 Fab signal (phage binding ELISA),[4],1.5
same,Anti-CD28 Fab signal in the presence of CD28 (phage binding ELISA),[5],0.06
"LMKWCTPRWMCAAE (cysteine pairing not given here; also: biotinylated, site not given here, PSMA mask peptide) [Peptide-179]",Off rate t1/2,PSMA Fab [8],1.2 min
same,EC50,PSMA Fab [9],0.11 µM
same,IC50,PSMA Fab [10],7.71 µM
same,IC50,PSMA Fab [11],6.49 µM
LMKWCTPAWMCAAE [Peptide-247],IC50,PSMA Fab [11],19.7 µM
AMKWCTPRWMCAAE [Peptide-241],IC50,PSMA Fab [11],9.16 µM
LMAWCTPRWMCAAE [Peptide-243],IC50,PSMA Fab [11],40.8 µM
LMKWCAPRWMCAAE [Peptide-245],IC50,PSMA Fab [11],49.7 µM
LMKWCTPRWMCAAA [Peptide-250],IC50,PSMA Fab [11],6.64 µM
LAKWCTPRWMCAAE [Peptide-242],IC50,PSMA Fab [11],13.7 µM
LMKACTPRWMCAAE [Peptide-244],IC50,PSMA Fab [11],34.5 µM
"YCDGHWPGYLWKCL [Phage-1330 (Peptide-87 library sequence, SEQ ID NO: 1646)]","Phage binding ELISA, Anti-CD28 Fab signal in the presence of CD28",[6],0.06
same,"Phage binding ELISA, Anti-CD28 Fab signal",[7],0.42
"IAVLCQPNWMCAGF (cysteine pairing not given here; also: biotinylated, site not given here, PSMA mask peptide) [Peptide-180]",IC50,PSMA Fab [12],4.14 µM
same,EC50,PSMA Fab [13],0.102 µM
same,Off rate t1/2,PSMA Fab [14],0.6 min
same,IC50,PSMA Fab [15],5.23 µM
IAVLCAPNWMCAGF (Alanine-scan variant Q6A of Peptide-180) [Peptide-254],IC50,PSMA Fab [15],15.7 µM
IAALCQPNWMCAGF (Alanine-scan variant V3A of Peptide-180) [Peptide-252],IC50,PSMA Fab [15],5.7 µM
IAVACQPNWMCAGF (Alanine-scan variant L4A of Peptide-180) [Peptide-253],IC50,PSMA Fab [15],28.2 µM
IAVLCQPAWMCAGF (Alanine-scan variant N8A of Peptide-180) [Peptide-256],IC50,PSMA Fab [15],2.16 µM
AAVLCQPNWMCAGF (Alanine-scan variant I1A of Peptide-180) [Peptide-251],IC50,PSMA Fab [15],8.45 µM
IAVLCQPNWMCAAF (Alanine-scan variant G13A of Peptide-180) [Peptide-259],IC50,PSMA Fab [15],67.9 µM
IAVLCQPNWMCAGA (Alanine-scan variant F14A of Peptide-180) [Peptide-260],IC50,PSMA Fab [15],60 µM
